Assay results from patent publication US20110275102.

What was measured:
[1] = target: GSK3-α partially purified from rabbit skeletal muscle
[2] = target: GSK3-β partially purified from rabbit skeletal muscle, A0A5F9
Crosstide GRPRTSSFAEG = target: T1, Crosstide GRPRTSSFAEG
T1 chain: GRPRTSSFAEG

Chain of GSK3-β partially purified from rabbit skeletal muscle, A0A5F9 (A0A5F9 entry or part of it): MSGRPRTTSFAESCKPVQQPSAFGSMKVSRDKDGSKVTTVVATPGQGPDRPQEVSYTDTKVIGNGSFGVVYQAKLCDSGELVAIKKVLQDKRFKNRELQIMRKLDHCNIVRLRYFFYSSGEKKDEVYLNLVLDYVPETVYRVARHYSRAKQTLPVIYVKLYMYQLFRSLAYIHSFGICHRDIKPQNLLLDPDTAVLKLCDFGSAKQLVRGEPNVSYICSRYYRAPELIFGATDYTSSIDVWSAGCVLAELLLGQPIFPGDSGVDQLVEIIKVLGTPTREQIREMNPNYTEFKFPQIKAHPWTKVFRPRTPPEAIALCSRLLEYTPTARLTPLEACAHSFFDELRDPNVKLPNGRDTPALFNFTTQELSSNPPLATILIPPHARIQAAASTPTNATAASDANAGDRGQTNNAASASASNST

B1: RAC-PK immunoprecipitated or chromatographed from insulin-stimulated L6 myotubes (protein)
chain: MNDVAIVKEGWLHKRGEYIKTWRPRYFLLKNDGTFIGYKERPQDVEQRESPLNNFSVAQCQLMKTERPRPNTFIIRCLQWTTVIERTFHVETPEEREEWTTAIQTVADGLKRQEEETMDFRSGSPSDNSGAEEMEVALAKPKHRVTMNEFEYLKLLGKGTFGKVILVKEKATGRYYAMKILKKEVIVAKDEVAHTLTENRVLQNSRHPFLTALKYSFQTHDRLCFVMEYANGGELFFHLSRERVFSEDRARFYGAEIVSALDYLHSEKNVVYRDLKLENLMLDKDGHIKITDFGLCKEGIKDGATMKTFCGTPEYLAPEVLEDNDYGRAVDWWGLGVVMYEMMCGRLPFYNQDHEKLFELILMEEIRFPRTLGPEAKSLLSGLLKKDPTQRLGGGSEDAKEIMQHRFFANIVWQDVYEKKLSPPFKPQVTSETDTRYFDEEFTAQMITITPPDQDDSMECVDSERRPHFPQFSYSASGTA
[1]
  GSK3 activity after incubation with MgATP and RAC-PK: RAC-PK from insulin-stimulated L6 myotubes (but not from unstimulated or wortmannin-treated cells) inactivated GSK3-α and GSK3-β in vitro
[2]
  GSK3 activity after incubation with MgATP and RAC-PK: RAC-PK from insulin-stimulated L6 myotubes (but not from unstimulated or wortmannin-treated cells) inactivated GSK3-α and GSK3-β in vitro
  site of in vitro phosphorylation (tryptic peptide, solid-phase sequencing): the third residue of these, corresponding to Ser9 (GSK3-β) or Ser21 (GSK3-α), was the site of phosphorylation in each phosphopeptide
Crosstide GRPRTSSFAEG
  site of phosphorylation in Crosstide: Akt/RAC phosphorylated the Ser in the Crosstide equivalent to Ser21 in GSK3-α and Ser9 in GSK3-β (data not shown)
